The source of these data is patent publication US20160279079A1, “COMPOSITIONS AND METHODS FOR TREATING BONE DISEASES” (INDIANA UNIVERSITY RESEARCH AND TECHNOLOGY CORPORATION, priority 2013, published 2016).

For assay [1], the system named is osteoclast-associated receptor (OSCAR). As to the kind of experiment: Quantitative real-time PCR, OSCAR mRNA in RAW264.7 cells. It counts as cell-based, mouse. Particulars: day 2. How it is done: (§1) METHOD EXAMPLE. Quantitative real-time PCR. Total RNA was extracted using an RNeasy Plus mini kit (Qiagen, Germantown, Md., USA). Reverse transcription was conducted with high capacity cDNA reverse transcription kits (Applied Biosystems, Carlsbad, Calif., USA), and quantitative real-time PCR was performed using ABI 7500 with Power SYBR green PCR master mix kits (Applied Biosystems). We evaluated mRNA levels of ATF4, Osteocalcin (OCN), NFATcl, c-Fos, tartrate-resistant acid phosphatase (TRAP), and osteoclast-associated receptor (OSCAR) with the PCR primers listed in Table 1. GAPDH was used for internal control. The relative mRNA abundance for the selected genes with respect to the level of GAPDH mRNA was expressed as a ratio of Streated/Scontrol, where Streated=mRNA level for the cells treated with chemical agents, and Scontrol=mRNA level for control cells.
(§2) METHOD EXAMPLE. Partial suppression of mRNA levels of NFATcl, c-Fos, TRAP, and OSCAR by salubrinal. […] On day 2, for instance, the RANKL-driven increase was 9.4±0.5 fold (NFATcl), 1.9±0.1 fold (c-fos), 165±4.2 fold (TRAP), and 467±22 fold (OSCAR). The reduction by 20 μM salubrinal was 46% (NFATcl), 32% (c-fos), 35% (TRAP), and 21% (OSCAR) (FIG. 5A).
(§3) METHOD EXAMPLE. Reduction of RANKL-induced NFATcl, c-Fos, TRAP, and OSCAR by guanabenz. […] The normalized level of “1” was defined as the level for the cells that were not treated with RANKL without administration of guanabenz.

In assay [2] the test system is RAW264.7 mouse pre-osteoclast (monocyte/macrophage) cells. As to the kind of experiment: Cell mortality and live cell numbers (trypan blue, hemacytometer). It counts as cell-based. Particulars: incubation with RANKL (20 ng/ml), 24 h. Here is the method: METHOD EXAMPLE. Cell culture. MC3T3 E1 mouse osteoblast-like cells (clone 14—MC3T3 E1-14; and no clonal cells in supplementary figures), and RAW264.7 mouse pre-osteoclast (monocyte/macrophage) cells were cultured in αMEM containing 10% fetal bovine serum and antibiotics (50 units/ml penicillin, and 50 μg/ml streptomycin; Life Technologies, Grand Island, N.Y., USA). Cells were maintained at 37° C. and 5% CO2 in a humidified incubator. Cell mortality and live cell numbers were determined 24 h after the treatment with 20 ng/ml RANKL (PeproTech, Rocky Hills, N.C., USA) in response to 0.1-20 μM salubrinal or 1-20 μM guanabenz acetate (Tocris Bioscience, Ellisville, Mo., USA). Cells were stained with trypan blue and the numbers of live and dead cells were counted using a hemacytometer.
METHOD EXAMPLE. Inhibition of osteoclastogenesis of RAW264.7 cells by salubrinal. The primary aim of this study is to evaluate the effects of salubrinal on osteoclastogenesis. In response to 0.1-20 μM salubrinal for 24 h, cell mortality and live cell numbers of RAW264.7 pre-osteoclasts was examined. […] The number of live cells was increased by ˜50% by incubation with RANKL, and administration of 10-20 μM salubrinal reduced the numbers approximately by 10% (FIG. 3B).
METHOD EXAMPLE. Inhibitory effects of guanabenz on osteoclastogenesis of RAW264.7 cells. To further examine a potential involvement of p-eIF2α in regulation of osteoclastogenesis, we employed guanabenz that also acts as an inhibitor of de-phosphorylation of eIF2α was evaluated. […] Compared to the number of TRAP-positive multi-nucleated cells of 377 39 (RANKL only), guanabenz reduced the number of differentiated osteoclasts to 364±38 (1 μM), 288±51 (5 μM), 189±25 (10 μM), and 73±16 (20 μM).

In assay [3] the test system is NFATc1. Briefly: Quantitative real-time PCR, NFATc1 mRNA in RAW264.7 cells. Particulars: day 2. The format is cell-based, mouse. How it is done: as §1, §2, §3
A general note: Quantitative PCR measures a nucleic acid by following its amplification.

Assay [4] deals with NFATc1. Briefly: Western immunoblotting, NFATc1 expression in RAW264.7 cells. The format is cell-based, mouse. The following applies: 24 h. How it is done: METHOD EXAMPLE. Downregulation of NFATcl in RAW264.7 cells by salubrinal. NFATcl is a transcription factor critical for activating osteoclastogenesis. […] The RANKL-induced expression of NFATcl was reduced by administration of 5-20 μM salubrinal on both days, and the effect of salubrinal was dose dependent (FIG. 4).
as §3
METHOD EXAMPLE. Western Immunoblotting. Cells were lysed in a radioimmunoprecipitation assay (RIPA) buffer containing protease inhibitors (Santa Cruz Biotechnology, Santa Cruz, Calif., USA) and phosphatase inhibitors (Calbiochem, Billerica, Mass., USA). Isolated proteins were fractionated using 10-15% SDS gels and electro-transferred to Immobilon-P membranes (Millipore, Billerica, Mass., USA). The membrane was incubated for 1 h with primary antibodies followed by 45 min incubation with goat anti-rabbit or anti-mouse IgG conjugated with horseradish peroxidase (Cell Signaling, Danvers, Mass., USA). We used antibodies against ATF4, NFATcl (Santa Cruz), p-eIF2α (Thermo Scientific, Waltham, Mass., USA), eIF2α, caspase 3, cleaved caspase 3, p38 and p-p38 mitogen activated protein kinase (MAPK), extracellular signal-regulated kinase (ERK) and p-ERK, nuclear factor kappa B (NFκB) p65 and p-NFκB p65 (Cell Signaling), and β-actin (Sigma). Protein levels were assayed using a SuperSignal west femto maximum sensitivity substrate (Thermo Scientific), and signal intensities were quantified with a luminescent image analyzer (LAS-3000, Fuji Film, Tokyo, Japan).
METHOD EXAMPLE. Temporal profile of p-eIF2α and NFATcl. […] Note that the normalized level of “1” in FIG. 6C was defined as the level for the cells that were not treated with RANKL without administration of guanabenz.

The subject of assay [5] is tartrate-resistant acid phosphatase (TRAP). As to the kind of experiment: Quantitative real-time PCR, TRAP mRNA in RAW264.7 cells. The format is cell-based, mouse. Particulars: day 2. How it is done:
as §1, §2, §3

In assay [6] the test system is c-Fos. Briefly: Quantitative real-time PCR, c-Fos mRNA in RAW264.7 cells. The format is cell-based, mouse. The following applies: day 2. Here is the method:
as §1, §2, §3

B1: RANKL: cytokine belonging to the tumor necrosis factor family; stimulus for osteoclast differentiation (PeproTech) (protein, UniProt O14788 140-317, looked up)
Tumor necrosis factor ligand …: IRAEKAMVDGSWLDLAKRSKLEAQPFAHLTINATDIPSGSHKVSLSSWYHDRGWAKISNMTFSNGKLIVNQDGFYYLYANICFRHHETSGDLATEYLQLMVYVTKTSIKIPSSHTLMKGGSTKYWSGNSEFHFYSINVGGFFKLRSGEEISIEVSNPSLLDPDQDATYFGAFKVRDID
For the molecule B1, in assay [1], the “RANKL-driven increase of OSCAR mRNA level” value is 467±22 fold. Besides, the “increase of the number of live cells” value in assay [2] is given as roughly 50%. Moreover, the “RANKL-driven increase of NFATc1 mRNA level” value in assay [3] is on record as 9.4±0.5 fold. For the same molecule, the “elevation of NFATc1 by addition of RANKL” value in assay [4] was 13.4±3.2 fold. Moreover, the “RANKL-driven increase of TRAP mRNA level” value in assay [5] came to 165±4.2 fold. Also, the “RANKL-driven increase of c-fos mRNA level” value in assay [6] is recorded as 1.9±0.1 fold.
